Where no end group is shown, it is not given here. Where only a bound is given, the exact number is not on record here.

Assay [1] has as its target T1, TBD-1 wt.
T1 construct: Fab; the heavy chain entry is VH-CH1; also called wild-type anti-TROP2 Fab (hRS7); TROP2 Fab
Briefly: competition ELISA, peptide vs Fab binding to captured biotin-TROP2. (ELISA stands for enzyme-linked immunosorbent assay.)

In assay [2] the target is T2, TBD-11 (HC R98A).
T2 construct: Fab; also called HC R98A mutant
Described as above.

Assay [3] deals with T3, TBD-17 (HC S104A).
T3 construct: Fab; also called HC S104A mutant
Described as above.

The target in assay [4] is T4, TBD-21 (HC F108A).
T4 construct: Fab; also called HC F108A mutant
The description is as above.

Assay [5] addresses T5, TBD-22 (HC D109A).
T5 construct: Fab; also called HC D109A mutant
The assay is described as above.

In assay [6] the target is T6, Human TROP2 Full length (human, UniProt P09758 31-323).
T6 sequence: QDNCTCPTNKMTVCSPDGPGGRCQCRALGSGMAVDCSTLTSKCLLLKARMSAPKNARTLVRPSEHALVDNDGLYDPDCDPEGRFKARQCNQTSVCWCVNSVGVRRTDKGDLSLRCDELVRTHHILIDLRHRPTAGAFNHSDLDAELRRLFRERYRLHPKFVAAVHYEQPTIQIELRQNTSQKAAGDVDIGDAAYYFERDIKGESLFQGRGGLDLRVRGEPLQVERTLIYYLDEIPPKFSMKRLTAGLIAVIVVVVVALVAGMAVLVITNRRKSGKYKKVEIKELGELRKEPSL
Briefly: cell-based or functional assay.

For assay [7], the target named is T7, Cyno TROP2 Full length (cynomolgus monkey, UniProt P09758 31-323 (human entry)).
T7 chain: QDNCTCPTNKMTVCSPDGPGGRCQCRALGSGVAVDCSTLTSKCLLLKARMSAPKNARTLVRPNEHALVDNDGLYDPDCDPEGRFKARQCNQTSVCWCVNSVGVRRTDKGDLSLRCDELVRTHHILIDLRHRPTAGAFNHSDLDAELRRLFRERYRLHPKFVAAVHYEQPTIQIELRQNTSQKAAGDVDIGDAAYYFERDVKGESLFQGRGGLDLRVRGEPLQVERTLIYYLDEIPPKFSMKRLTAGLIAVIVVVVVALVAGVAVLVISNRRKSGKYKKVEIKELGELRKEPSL
Nature of the assay: cell-based or functional assay.

Assay [8] deals with T8, Human TROP2 ECD (31-274 AA) (human, UniProt P09758 31-274, biotinylated).
T8 construct: also called biotinylated TROP2; TROP2-biotin
T8 sequence: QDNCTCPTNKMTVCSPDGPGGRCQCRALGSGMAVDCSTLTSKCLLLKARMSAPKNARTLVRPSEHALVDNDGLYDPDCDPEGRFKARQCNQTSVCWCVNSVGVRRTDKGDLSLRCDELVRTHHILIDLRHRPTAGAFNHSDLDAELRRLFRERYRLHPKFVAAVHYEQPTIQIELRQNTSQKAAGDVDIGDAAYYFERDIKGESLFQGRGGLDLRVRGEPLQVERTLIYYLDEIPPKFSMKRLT
Briefly: ELISA; biotinylated TROP2 on neutravidin plates, PC titrated, HRP secondary.

The target of assay [9] is T9, TBD-1 wt (anti-TROP2 Fab, hRS7).
T9 construct: non-mutated Fab
Briefly: competition ELISA, Fab on captured TROP2.

In assay [10] the target is T10, TBD-6 (LC I93A).
T10 construct: anti-TROP2 Fab, CDR3 LC alanine mutant
Briefly: competition ELISA, Fab on captured TROP2.

For assay [11], the target named is T11, TBD-11 (HC R98A).
T11 construct: anti-TROP2 Fab, CDR3 HC alanine mutant
Nature of the assay: competition ELISA, Fab on captured TROP2.

Assay [12] addresses T12, TBD-17 (HC S104A).
T12 construct: anti-TROP2 Fab, CDR3 HC alanine mutant
Nature of the assay: competition ELISA, Fab on captured TROP2.

For assay [13], the target named is T13, TBD-22 (HC D109A).
T13 construct: anti-TROP2 Fab, CDR3 HC alanine mutant
Nature of the assay: competition ELISA, Fab on captured TROP2.

Turning to SVLFCVKNLYCWVT (cysteine pairing not given here; also: biotinylated (site not given here)) [Peptide-24], the IC50 (as a rule, the midpoint of a concentration-inhibition curve) in assay [1] amounted to 2780 nM.

Take PDFCAVYRWPICYQ (cysteine pairing not given here; also: biotinylated, site not given here) [Peptide-64]: the 50% inhibitory concentration (IC50) in assay [2] came to 1.78 µM; in [3], 1600 nM; in assay [4], 1.63 µM; in [5], 120 nM.

NYLLCVKNLYCWIV (cysteine pairing not given here; also: biotinylated, site not given here) [Peptide-28] registered an IC50 in [1] of 1630 nM.

B1: PC-33 (bispecific antibody)
light: GGVDFCALYHWPICYQGGGGSGGLSGRSDAGSPLGLAGSGGSDIQLTQSPSSLSASVGDRVSITCKASQDVSIAVAWYQQKPGKAPKLLIYSASYRYTGVPDRFSGSGSGTDFTLTISSLQPEDFAVYYCQQHYITPLTFGAGTKVEIKRTVAAPSVFIFPPSDEQLKSGTASVVCLLNNFYPREAKVQWKVDNALQSGNSQESVTEQDSKDSTYSLSSTLTLSKADYEKHKVYACEVTHQGLSSPVTKSFNRGEC
heavy: not shown
notes: Masked polypeptide complex: anti-TROP2 F108A, anti-CD3 wt; CD3 mask …
B1: in [6], the “H292 Cytotoxicity EC50 (pM)” value is 13200 pM. The “CyTROP2 HEK293 EC50 (pM)” value in assay [7] was found to be 837 pM. It took 574 nM to reach a half-maximal effect in [8] (EC50).

B2: PC-40 (bispecific antibody)
light: GGVDFCALYHWPICYQGGGGSGGLSGRSDAGSPLGLAGSGGSDIQLTQSPSSLSASVGDRVSITCKASQDVSIAVAWYQQKPGKAPKLLIYSASYRYTGVPDRFSGSGSGTDFTLTISSLQPEDFAVYYCQQHYITPLTFGAGTKVEIKRTVAAPSVFIFPPSDEQLKSGTASVVCLLNNFYPREAKVQWKVDNALQSGNSQESVTEQDSKDSTYSLSSTLTLSKADYEKHKVYACEVTHQGLSSPVTKSFNRGEC
heavy: EVQLVESGGGLVQPGGSLRLSCAASGSTFYTAVMGWVRQAPGKGLEWVAAIRWTALTTSYADSVKGRFTISRDGAKTTLYLQMNSLRPEDTAVYYCAARGTLGLFTTADSYDYWGQGTLVTVSSGGGGSGGGSGGYLCGPDADETLACYGGGGSGGGLSGRSDAGSPLGLAGSGGGSEVQLVESGGGLVQPGGSLKLSCAASGFTFNKYAMNWVRQASGKGLEWVGRIRSKYNNYATYYADSVKDRFTISRDDSKNTAYLQMNSLKTEDTAVYYCVRHGNFGNSYISYWAYWGQGTLVTVSSGGGGSGGGGSGGGGSQTVVTQEPSFSVSPGGTVTLTCRSSTGAVTSGNYANWVQQTPGQAPRGLIGGTKFLAPGVPDRFSGSILGNKAALTITGAQADDESDYYCVLWYSNRWVFGGGTKLTVLGGGGSQVQLQQSGSELKKPGASVKVSCKASGYTFTNYGMNWVKQAPGQGLKWMGWINTYTGEPTYTDDFKGRFAFSLDTSVSTAYLQISSLKADDTAVYFCARGGFGSSYWYADVWGQGSLVTVSSASTKGPSVFPLAPSSKSTSGGTAALGCLVKDYFPEPVTVSWNSGALTSGVHTFPAVLQSSGLYSLSSVVTVPSSSLGTQTYICNVNHKPSNTKVDKKVEPKSC
notes: Masked polypeptide complex: anti-TROP2 F108A, anti-CD3 with P41S, A49G, N87S ; E227D; CD3 mask YLCGPDADETLACY
As to B2, in assay [6], the “H292 Cytotoxicity EC50 (pM)” value was 53200 pM and the “HCT116 Cytotoxicity EC50 (pM)” value is greater than 100000 pM. For the same molecule, the “CyTROP2 HEK293 EC50 (pM)” value in [7] stood at 10400 pM. In addition, in [8], the EC50 (as a rule, the concentration giving half of the maximal effect) was found to be 3510 nM.

Turning to VDFCYQYGWPICSRVD (mask peptide for the TROP2 Fab) [Peptide-45], the IC50 in [9] was found to be 9.29 µM; in [10] it was 14.5 µM; in [11], 409 µM; in assay [12], 39.6 µM; in assay [13] it was 2500 nM.

In turn, YSLVCVKNLYCWNL (cysteine pairing not given here; also: biotinylated, site not given here) [Peptide-31] came in with an IC50 in assay [1] of 2940 nM.

Take DNLICVKNLWCWIA (cysteine pairing not given here; also: biotinylated, site not given here) [Peptide-26]: the half-inhibitory concentration (IC50) in assay [1] was found to be 2230 nM.

B3: PC-49 (bispecific antibody)
light: GGVDFCALYHWPICYQGGGSGGSGGISSGLLSGRSDAGSGGSDIQLTQSPSSLSASVGDRVSITCKASQDVSIAVAWYQQKPGKAPKLLIYSASYRYTGVPDRFSGSGSGTDFTLTISSLQPEDFAVYYCQQHYITPLTFGAGTKVEIKRTVAAPSVFIFPPSDEQLKSGTASVVCLLNNFYPREAKVQWKVDNALQSGNSQESVTEQDSKDSTYSLSSTLTLSKADYEKHKVYACEVTHQGLSSPVTKSFNRGEC
heavy: not shown
notes: Masked polypeptide complex with CL2 cleavable linker: anti-TROP2 F108A, anti-CD3 wt
For the molecule B3, in [6], the “H292 Cytotoxicity EC50 (pM)” value is 67400 pM and the “HCT116 Cytotoxicity EC50 (pM)” value is greater than 100000 pM. Besides, the “CyTROP2 HEK293 EC50 (pM)” value in [7] stood at 10600 pM. This molecule also had an EC50 in [8] of 1360 nM.

Take VDFCYQYAWPVCSTGD (mask peptide for the TROP2 Fab) [Peptide-52]: the IC50 in assay [9] is 14.3 µM; in [10] it was 12.3 µM; in [11] it was 19.1 µM; in [12], 15.7 µM; in assay [13], 890 nM.

With VDFCYQYGWPICSRLY (mask peptide for the TROP2 Fab) [Peptide-47], the concentration for half-maximal inhibition (IC50) amounted to 6.48 µM in [9]; 7.54 µM in assay [10]; 46.2 µM in assay [11]; 27.2 µM in assay [12]; 2010 nM in assay [13].

In the case of IDFCLIYNWPVCDT (cysteine pairing not given here; also: biotinylated, site not given here) [Peptide-63], the IC50 amounted to 6.81 µM in assay [2], 1400 nM in [3], 5.89 µM in [4] and 110 nM in [5].

B4: PC-48 (bispecific antibody)
light: GGVDFCALYHWPICYQGGGGSGGGSGGSGGASSGAGGSGGGSDIQLTQSPSSLSASVGDRVSITCKASQDVSIAVAWYQQKPGKAPKLLIYSASYRYTGVPDRFSGSGSGTDFTLTISSLQPEDFAVYYCQQHYITPLTFGAGTKVEIKRTVAAPSVFIFPPSDEQLKSGTASVVCLLNNFYPREAKVQWKVDNALQSGNSQESVTEQDSKDSTYSLSSTLTLSKADYEKHKVYACEVTHQGLSSPVTKSFNRGEC
heavy: not shown
notes: Masked polypeptide complex with non-cleavable linker: anti-TROP2 F108A, anti-CD3 wt
For B4, in [6], the “H292 Cytotoxicity EC50 (pM)” value was greater than 100000 pM and the “HCT116 Cytotoxicity EC50 (pM)” value is greater than 100000 pM. Also, the “CyTROP2 HEK293 EC50 (pM)” value in assay [7] is 69900 pM. The molecule also came in with a 50% effective concentration (EC50) in assay [8] of 3960 nM.

VEFCKQWTWFGCMT (mask peptide for the TROP2 Fab) [Peptide-44]: the 50% inhibitory concentration (IC50) in [11] was 3.55 µM.

Regarding VDFCSFYRWPICET (cysteine pairing not given here; also: biotinylated (site not given here)) [Peptide-20], in assay [1], the IC50 worked out at 1610 nM.

In [11], VEICKQWFYTVCLS (mask peptide for the TROP2 Fab) [Peptide-58] displayed an IC50 of 1.13 µM.

On to FSLVCVRNLYCWNV (cysteine pairing not given here; also: biotinylated, site not given here) [Peptide-27], for which the half-inhibitory concentration (IC50) in [1] was 740 nM.

In the case of TSLICFRNVYCWNV (cysteine pairing not given here; also: biotinylated, site not given here) [Peptide-30], the half-inhibitory concentration (IC50) in assay [1] came to 1910 nM.

For the origin of these results see patent US20230357429A1 (JANUX THERAPEUTICS, published 2023).
